In article PMC8259415:
Blank lines part the entries; values can stand above or below the substance they belong to.

Assays:
Abl2 SH2 domain = Abl2 SH2 domain (UniProt Q4JIM5); experiment: SH2-coupled bead pull-down from lysate, blot; conditions: reference: wild type
[1] = biological target: Abl2 Src homology 2 (SH2) domain (UniProt Q4JIM5); experiment: pull-down; Abl2 SH2 covalently linked to AminoLink beads, 1 μM; 0 to 2 μM PDGFRβ CD; 1 h at 4 °C; 50 mM Hepes pH 7.25, 150 mM NaCl, 5% glycerol, 1 mM DTT; SDS-PAGE, Coomassie densitometry, one-site specific binding fit

UniProt Q4JIM5, sequence (Q4JIM5 173-263): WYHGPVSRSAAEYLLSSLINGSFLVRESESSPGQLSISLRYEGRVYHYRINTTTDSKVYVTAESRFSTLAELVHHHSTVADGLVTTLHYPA

- other: percent reduction relative to WT (Abl2 SH2 domain; sites Y751): 10%
Substance: PDGFRβ (from UniProt P09619) Y751F

- other: percent reduction relative to WT (Abl2 SH2 domain; sites Y771): 90%
Substance: PDGFRβ (from UniProt P09619) Y771F

- Kd [1]: 260 nM
Substance: autophosphorylated PDGFRβ cytoplasmic domain (CD) (from UniProt P09619 554-1106) (domain or fragment)
